The labels stand for the following.
B1: Azoarcus group I ribozyme (parent)
chain: GUGCCUUGCGCCGGGAAACCACGCAAGGGAUGGUGUCAAAUUCGGCGAAACCUAAGCGCCCGCCCGGGCGUAUGGCAACGCCGAGCCAAGCUUCGGCGCCUGCGCCGAUGAAGGUGUAGAGACUAGACGGCACCCACCUAAGGCAAACGCUAUGGUGAAGGCAUAGUCCAGGGAGUGGCGAAAGUCACACAAACCGG

The variants in the data set derive from B1. Briefly: reverse-splicing fitness (ratio to wild type); higher = more active; in vitro selection; Mg2+ level not given. The method, boiled down:
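An in vitro group I ribozyme library with randomized positions was T7-transcribed and gel-purified. In triplicate, 10 pmol RNA in EPPS pH 7.5 was reacted with 50 pmoles of a 30-nt RNA substrate for 1 h at 37 °C across several added MgCl2 levels (1–48 mM), then stopped with EDTA. Products were reverse transcribed from a substrate-complementary primer, PCR-amplified and sequenced (HiSeq 4000). Fitness is a variant's read proportion after selection over that before, normalised to wild type.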
For the variant C82U A111G A145U C150A C169U U176A, the reverse-splicing fitness was 0.013.
As for C82A A145U C150A C169A, the figure is 0.00847; as for C82A A111C A120U A145G C150A C169G, 0.00577.
On to C82U A111U A120G A145C U176C, for which the reverse-splicing fitness was determined as 0.00925.
Then A111C A120U A145G C169A U176G, with 0.00216; and C82G A111G A120C A145U C150U C169U, with 0.0124; and C82G A111U A145C, with 0.365.
As for C82U C150G C169A U176G, the figure is 0.00612; as for A111C A120U A145U C150U C169G, 0.0348.
As for C82A A111G A120C A145G C150G C169U, the figure is 0.00967.
C82A A145G C150G U176A: the reverse-splicing fitness came to 0.0291.
As to C82G A111U A145G C150A C169G, the reverse-splicing fitness was determined as 0.00989.
As for A111G A120U C150U C169U, the figure is 0.0666; as for C82A A111C A120U A145C C150U C169A U176G, 0.00233; as for A120U A145G C169U U176G, 0.0132.
Then A111U A145C C150A C169G U176G, with 0.00622; and C82G A111G A120G A145G C150A C169U U176G, with 0.00809; and C82G A111U C150A C169U U176G, with 0.00776.
As for A111C A145U C150G C169A U176A, the figure is 0.00872; as for C82G A111C A120U A145C C150G C169U U176C, 0.00324; as for C82A A111G A120C A145U C150U U176G, 0.00709.
On to C82G A120G A145C C150A C169A U176C, for which the reverse-splicing fitness is 0.00516.
Then C82U A111U A120G C150G C169G U176C, with 0.00449.
Then C82A A111U A120U A145C C150G C169U U176A, with 0.00314; and C82U A111G A145G C150G U176C, with 0.0206.
As for A111G A120U A145U C150A C169A, the figure is 0.00222.
Turning to C82U A111C A120G A145U C150G C169U U176A, the reverse-splicing fitness was found to be 0.00881.
As to C82A A120G C150G C169A U176A, the reverse-splicing fitness was 0.0116.
C82A A111G A120C C150G C169U U176A: the reverse-splicing fitness worked out at 0.00701.
As for C82U A111G A120U A145C C150G U176C, the figure is 0.00405; as for A111U A145C C150U C169G, 0.0177; as for A111C C150A C169G U176G, 0.00762.
As for C82U A111U A120G A145U C150A, the figure is 0.00808.
A111C A120G A145U C150A U176C: the reverse-splicing fitness worked out at 0.0176.
As for C82U A120G C150A C169A U176C, the figure is 0.0164; as for C82A A111C A120G A145G C150G C169A, 0.00875.
As for C82A A111G A120C A145C C169A U176A, the figure is 0.0162.
Consider C82G A111C A120U C169G, for which the reverse-splicing fitness came out at 0.00478.
Then C82U A111C A145U C169G U176C, with 0.0162; and C82G A111U A120U A145G C150A C169A U176A, with 0.00821; and C82U A145G C150A C169G U176C, with 0.0265.
As for A120G A145C C150G C169G, the figure is 0.114.
Turning to C82G A145U U176C, the reverse-splicing fitness stood at 0.405.
Take C82A A111U A120C A145C C150G U176A: the reverse-splicing fitness is 0.00531.
As for C82G A111C A120U A145C C150A U176G, the figure is 0.00247.
Then C82A A111C A120C A145C C150A C169U U176G, with 0.00786; and C82G A120G C169U U176G, with 0.00492.
Then C82U A120U A145U, with 0.181; and C82A A111G A120C C150A C169A, with 0.0113.
On to C82U A120C A145G C150A, for which the reverse-splicing fitness is 0.0315.
Then C82U A111G A120G A145G C150G U176A, with 0.00637; and A111G A120U A145C C169G U176G, with 0.00205; and A111G A120U A145C C169G U176C, with 0.00699.
As for C82G A111U A145U C150A C169A U176G, the figure is 0.00732; as for A111C A120G A145U C169A U176C, 0.0182.
Then C82A A120G U176A, with 0.0137; and C82G A111U A120G A145C C169A U176C, with 0.00976; and C82G A111U A120G C150G C169A, with 0.00883.
For the variant C82G A111C A120G C150A C169G, the reverse-splicing fitness is 0.00935.
For C82G A111C A145U C150U C169G U176G, the reverse-splicing fitness stood at 0.00868.
Then C82G A120U A145U C150U C169A U176G, with 0.00157; and C82U A120C C150U, with 0.0835.
As for C82U A111G A120U A145U C150U C169G, the figure is 0.00305.
As for C82A A120G A145U C150A U176C, the figure is 0.0131; as for C82U A111G A120C C150A C169A U176A, 0.0215; as for A111U A120U A145U C150G C169G U176G, 0.00207.
Consider C82G A111U A120G A145G C150G C169A, for which the reverse-splicing fitness came out at 0.00911.
Then A111C A120U A145G C169G, with 0.0583; and C82A A120U C169A U176C, with 0.00197; and A111G A120G A145U C169A U176C, with 0.0642.
Then C82G A111G C150U U176A, with 0.128; and C82G A111G A120U A145U C150U U176G, with 0.00444.
Take C82G A111U A120U A145G: the reverse-splicing fitness was 0.043.
Then C82U A111U A145G C150U C169U U176A, with 0.0149.
As for C82U A111U A120C A145G C150G C169G U176C, the figure is 0.0112; as for C82A A111U A120U A145U C169A U176A, 0.00283; as for A145U C150A C169U U176G, 0.00699.
Then C82G A111G A120U A145U C150G C169A U176G, with 0.00219; and A120U A145G C150A C169G U176C, with 0.0214; and C82G A111G A120C A145U C150G U176A, with 0.00634.
Turning to C82G A111G A120C A145U C150G U176C, the reverse-splicing fitness was found to be 0.0121.
Then C82G A111G A120C C150G C169U, with 0.0104; and C82U A111C A120C A145C C150U C169U, with 0.0108.
